{"source": "patent US20200010567A1", "about": "(NEURIMMUNE, published 2020)", "key": {"[1]": {"molecular_target": "T1, (GA)15: H-CHHHHHH(GA)15-OH", "T1 construct": "synthetic, not coupled to BSA; also called poly-GA DPR protein peptide", "T1 peptide": "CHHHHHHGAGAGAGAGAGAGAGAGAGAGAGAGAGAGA", "assay": "indirect ELISA, uncoupled peptide coated, antibody titrated [also D00012 FIG. 3B]", "description": "(§1) In brief, dipeptide repeat proteins were synthesized and purified by Schafer-N(Copenhagen, Denmark): (GA)₁₅: H-CHHHHHH(GA)₁₅-OH; (GP)₁₅: H-C(GP)₁₅-OH; (GR)₁₅: H-C(GR)₁₅-OH; (PA)₁₅: H-C(PA)₁₅-OH; (PR)₁₅: H—C(PR)₁₅-OH. DPR protein peptides were then conjugated via a bifunctional linker (SMCC) to bovine serum albumin (BSA). 96-well microplates (Corning Incorporated, Corning, USA) were coated with BSA-coupled or -uncoupled dipeptide repeat protein peptides at a concentration of either 5 μg/ml or 20 μg/ml in coating buffer (15 mM Na₂CO₃, 35 mM NaHCO₃, pH 9.42). Non-specific binding sites were blocked for 1 h at room temperature with PBS/0.1% Tween®-20 containing 2% BSA (Sigma-Aldrich, Buchs, Switzerland). Primary antibodies were diluted to the indicated concentrations and incubated 1 h at room temperature, followed by incubation with a donkey anti-human IgG Fcγ-specific antibody conjugated with HRP (Jackson ImmunoResearch Laboratories, Inc., West Grove, USA). Binding was determined by measurement of HRP activity in a standard colorimetric assay. EC₅₀ values were estimated by non-linear regression using GraphPad Prism software (San Diego, USA)."}, "[2]": {"molecular_target": "T1, (GA)15: H-CHHHHHH(GA)15-OH", "assay": "indirect ELISA, uncoupled peptide coated, antibody titrated [also D00013 FIG. 3E]", "description": "as §1"}, "(PA)15: H-C(PA)15-OH": {"molecular_target": "T2, (PA)15: H-C(PA)15-OH", "T2 construct": "synthetic, not coupled to BSA; also called poly-PA DPR protein peptide", "T2 peptide": "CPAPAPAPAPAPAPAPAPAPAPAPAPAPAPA", "assay": "indirect ELISA, uncoupled peptide coated, antibody titrated [also D00015 FIG. 3K]", "description": "as §1"}, "[3]": {"molecular_target": "T3, BSA-coupled (PA)15 DPR protein peptide (bovine, UniProt P02769 25-607, conjugated via a bifunctional linker (SMCC) to bovine serum albumin)", "T3 construct": "also called BSA-(PA)15", "T3 sequence (P02769 25-607 limits assumed, chain 2 of 2, one chain of several)": "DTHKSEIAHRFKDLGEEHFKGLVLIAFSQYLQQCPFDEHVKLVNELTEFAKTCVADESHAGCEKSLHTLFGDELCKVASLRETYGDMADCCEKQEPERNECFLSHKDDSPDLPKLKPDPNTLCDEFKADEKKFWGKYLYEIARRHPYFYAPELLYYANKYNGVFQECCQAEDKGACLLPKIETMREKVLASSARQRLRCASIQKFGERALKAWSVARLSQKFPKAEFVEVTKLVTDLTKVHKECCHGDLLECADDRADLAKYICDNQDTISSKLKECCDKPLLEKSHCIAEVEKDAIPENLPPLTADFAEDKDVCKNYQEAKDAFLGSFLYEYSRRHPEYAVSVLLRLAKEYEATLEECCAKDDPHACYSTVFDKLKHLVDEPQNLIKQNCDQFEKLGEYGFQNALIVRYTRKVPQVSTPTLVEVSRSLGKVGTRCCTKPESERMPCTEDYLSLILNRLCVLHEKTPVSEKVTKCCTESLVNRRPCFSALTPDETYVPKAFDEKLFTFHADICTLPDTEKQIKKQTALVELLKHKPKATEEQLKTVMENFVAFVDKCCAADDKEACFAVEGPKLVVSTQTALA", "assay": "indirect ELISA, BSA-coupled peptide coated, antibody titrated [also D00015 FIG. 3K]", "description": "as §1"}, "GA2: H-(GA)2HHHHHH-NH2": {"molecular_target": "T4, GA2: H-(GA)2HHHHHH-NH2", "T4 peptide": "H-GAGAHHHHHH-NH2", "assay": "indirect ELISA, His-tagged peptide coated at 50 ug/ml, antibody titrated [also D00025 FIG. 7H]", "description": "as §1, with “96-well” for “In brief, dipeptide repeat proteins were synthesized and purified by Schafer-N(Copenhagen, Denmark): (GA)₁₅: H-CHHHHHH(GA)₁₅-OH; (GP)₁₅: H-C(GP)₁₅-OH; (GR)₁₅: H-C(GR)₁₅-OH; (PA)₁₅: H-C(PA)₁₅-OH; (PR)₁₅: H—C(PR)₁₅-OH. DPR protein peptides were then conjugated via a bifunctional linker (SMCC) to bovine serum albumin (BSA). 96-well”, “with” for “with BSA-coupled or -uncoupled”, “50” for “either 5 μg/ml or 20”\n(§2) High affinity binding was detected for poly-GA DPRs harboring 10 or 20 (GA)-repeats, reflected in an EC₅₀ in the subnanomolar or low nanomolar range (FIGS. 7A, 7C-7I)."}, "GA4: H-(GA)4HHHHHH-NH2": {"molecular_target": "T5, GA4: H-(GA)4HHHHHH-NH2", "T5 peptide": "H-GAGAGAGAHHHHHH-NH2", "assay": "indirect ELISA, His-tagged peptide coated at 50 ug/ml, antibody titrated [also D00025 FIG. 7H]", "description": "as §1, with “96-well” for “In brief, dipeptide repeat proteins were synthesized and purified by Schafer-N(Copenhagen, Denmark): (GA)₁₅: H-CHHHHHH(GA)₁₅-OH; (GP)₁₅: H-C(GP)₁₅-OH; (GR)₁₅: H-C(GR)₁₅-OH; (PA)₁₅: H-C(PA)₁₅-OH; (PR)₁₅: H—C(PR)₁₅-OH. DPR protein peptides were then conjugated via a bifunctional linker (SMCC) to bovine serum albumin (BSA). 96-well”, “with” for “with BSA-coupled or -uncoupled”, “50” for “either 5 μg/ml or 20”\nas §2"}, "GA3: H-(GA)3HHHHHH-NH2": {"molecular_target": "T6, GA3: H-(GA)3HHHHHH-NH2", "T6 peptide": "H-GAGAGAHHHHHH-NH2", "assay": "indirect ELISA, His-tagged peptide coated at 50 ug/ml, antibody titrated [also D00025 FIG. 7H]", "description": "as §1, with “96-well” for “In brief, dipeptide repeat proteins were synthesized and purified by Schafer-N(Copenhagen, Denmark): (GA)₁₅: H-CHHHHHH(GA)₁₅-OH; (GP)₁₅: H-C(GP)₁₅-OH; (GR)₁₅: H-C(GR)₁₅-OH; (PA)₁₅: H-C(PA)₁₅-OH; (PR)₁₅: H—C(PR)₁₅-OH. DPR protein peptides were then conjugated via a bifunctional linker (SMCC) to bovine serum albumin (BSA). 96-well”, “with” for “with BSA-coupled or -uncoupled”, “50” for “either 5 μg/ml or 20”\nas §2"}, "[4]": {"molecular_target": "T1, (GA)15: H-CHHHHHH(GA)15-OH", "assay": "indirect ELISA, coated peptide"}}, "data": [{"binder": "NI-308.18F7 (antibody, V domains shown, Recombinant complete human IgG1, kappa) VH: QVQLQESGPGLVKPSETLSVTCTVSGGSINDYYWNWIRQPAGKGLEWIGRIYASGTINYNPSLQSRVTMSIDTSKNQFSLDLISVSAADTAVYYCARWGQVVGDYYYGMDVWGQGTTVTVSS VL: EIVLTQSPLSLSVTPGEPASISCKSSQSLQHTNGYNYLDWYLLKPGQSPQLLIFLTSNRASGVPDRFSGSGSGTNFTLKISRVEAEDVGVYYCMEGIQLWTFGQGTKLEIK", "values": [{"measurement": "EC50", "setting": "[1]", "value": 0.34, "unit": "nM"}]}, {"binder": "NI-308.45C2 (antibody, V domains shown, Recombinant complete human IgG1, kappa) VH: QLQLQESGPGLVKPSQILSLTCAISGDSVFSNSAAWNWIRQSPSRGLEWLGRTYYRSKWDNDYAPSVKSRISINPDTSKNQFSLQLNSVTPEDTAVYYCAREVAYCGGDCYSVSFDYWGQGTLVTVSS VL: not shown", "values": [{"measurement": "EC50", "setting": "[2]", "value": 1.1, "unit": "nM"}]}, {"binder": "NI-308.4M1 (antibody, V domains shown, Recombinant complete human IgG1, kappa) VH: EVQLVETGGGVVQPGGSLRLSCEASGFTIGTYAMHWVRQFPGKGLDWVAVISFDGTTEYYTDAVKGRFTISRDNAKNTLYLQMNYLRGDDTAIYFCARDFTSSGETGSWTQVPDLWGQGTLVTVSS VL: CEIVMTQSPATLSLSPGERATLSCRASQSVTKYLAWYQQKPGQAPRLLIYDVSYRAAGTPARFSGSGSGTDFTLTISSLEPEDFAVYYCHQRSSWPPVTFGGGTKVEIK", "values": [{"measurement": "EC50", "setting": "(PA)15: H-C(PA)15-OH", "value": 0.1, "unit": "nM"}, {"measurement": "EC50", "setting": "[3]", "value": 0.14, "unit": "nM"}]}, {"binder": "NI-308.28G1 (antibody, V domains shown, Recombinant complete human IgG1, kappa) VH: QVQLQESGPRLVKPSETLSLTCTVAGGSVNSYYWTWIQQSPGKGLEWLGRIYIAGRTNYNPSLTSRIALSVDTSRNQLSLKLTSVTAADTAIYYCARWGAESGDYYYGVDVWGPGTLVTVSS VL: EIVMTQSPLSLPVTPGEPASISCKSSEGLLHSNGYTYLDWYLQKPGQAPQLLIFLASNRAAGVPDRFSGSGSGTDFTLKISRVEAEDVGVYYCMQAIQSPWTFGPGTKVEIK", "values": [{"measurement": "binding result", "setting": "GA2: H-(GA)2HHHHHH-NH2", "value": "no binding (tested: about 4x10^5 pM (last point))"}, {"measurement": "binding result", "setting": "GA4: H-(GA)4HHHHHH-NH2", "value": "no binding (tested: about 4x10^5 pM (last point))"}, {"measurement": "binding result", "setting": "GA3: H-(GA)3HHHHHH-NH2", "value": "no binding (tested: about 4x10^5 pM (last point))"}]}, {"binder": "NI-308.24E11 (antibody, V domains shown, Recombinant complete human IgG1, kappa) VH: QVQLQESGPGLVKPSETLSLTCTVSTTSLRSYFWSWIRQPPGKGLEWIGYVYYSGSTIYNPSLKNRVTISIDTSKNQFSLNLRSVTAADTAMYFCARGVPAETDARDFPPYYFDHWGQGTLVTVSS VL: CDIQLTQSPSSLSASVGNRITFTCQASQDIRYYLNWYQQKPGKAPKLLIYDVSNLDTGVPPRFSGSGSGTNFTFTISSLQPEDIAVYYCQQYEGLPVTFGGGTKVEIK", "values": [{"measurement": "binding result", "setting": "[4]", "value": "no binding"}]}]}
